The record followed here is patent US9333240B2, “Compounds for improving nutritional status, cognition and survival” (YISSUM RESEARCH DEVELOPMENT COMPANY OF THE HEBREW …, priority 2005, dated 2016).

“Also recorded” adds a separate entry of the source.

Experiment [1] relates to mice. The experiment is described as follows: Eight-arm maze, mice ad libitum or diet restricted. Format: in vivo. Particulars: 1 mg/kg leptin daily for 5 days. On the procedure:
Control mice received food ad-libitum. Diet-restricted mice received a diet of 57 kCal/week/mouse (2.16 g/day/mouse) as 60% of the requirement, or 38 kCal/week/mouse (1.44 g/day/mouse) for 40%/DR. DR was carried out for 10 days. Behavioral test was performed using the eight-arm spatial maze during the second week of experiment. […] Mice were sacrificed by decapitation after the behavioral tests and the hippocampi were frozen at −70° C. The animals were placed in an eight-arm maze, which is a scaled-down version of that developed for rats (Randt et al, (1971) Science 172, 489-499; Ziv et al (1994) Neuroscience Lett, 170, 136-140). […] The mice were tested until they made entries into all eight arms or until they completed 24 entries, whichever came first. […] Maze performance was calculated each day for five consecutive days. Results were presented as area under the curve (AUC) utilizing the formula: (day 2+day 3+day 4+day 5)−4*(day 1).

For experiment [2], the system named is norepinephrine and dopamine in the hippocampus. The experiment can be described thus: Hippocampal catecholamine measurements (HPLC-ECD). Format: in vivo, mice. The conditions noted are these: 1 mg/kg leptin daily. On the procedure: Control mice received food ad-libitum. Diet-restricted mice received a diet of 57 kCal/week/mouse (2.16 g/day/mouse) as 60% of the requirement, or 38 kCal/week/mouse (1.44 g/day/mouse) for 40%/DR. DR was carried out for 10 days. Behavioral test was performed using the eight-arm spatial maze during the second week of experiment. During the behavioral tests, half of the animals in each group were injected intraperitoneally (i.p) with AICAR (1-2 mM equal to 258-516 mg/kg) or leptin (1 mg/kg) and the other half with saline. Mice were sacrificed by decapitation after the behavioral tests and the hippocampi were frozen at -70° C. Catecholamines were measured as described previously ([…] et al (1996), Brain Res. 732, 133-144. The assays for dopamine and NE were performed by HPLC separation and detection using HPLC-ECD. Values are presented as a concentration (ng/mg tissue).

The test system of experiment [3] is mice. The experiment is described as follows: Morris Water Maze in diet-restricted mice. Format: in vivo. The conditions noted are these: leptin 1 mg/kg daily; data not shown. On the procedure: The effects of leptin administration (restoration) on neural function in diet-restricted mice was investigated. Mice were assigned at random to 4 groups. The groups were kept under ad libitum or DR to 40% for 10 days and injected daily with either 1 mg/kg leptin or saline for 5 days during the second week. […] Cognitive performance improvement was also observed in the Morris Water Maze (data not shown). Then the effects on the concentrations of NE and dopamine in the hippocampus were evaluated. […] To elucidate the cellular mechanisms involved in leptin effects, proteins associated with apoptosis were determined by immunoblotting. Leptin induced up-regulation of bcl-2 while reducing Bax levels. […] The anti-apoptotic effect of leptin was further confirmed by detection of activated caspase-3 expression as ?of apoptotic cell death. Activated caspase-3 could not be detected in the hippocampi of control animals.

The test system of experiment [4] is activated caspase-3. The experiment is described as follows: Activated caspase-3 immunohistochemistry in hippocampal sections. Format: in vivo, mice. Particulars: 40% DR, leptin 1 mg/kg. On the procedure: Mice were perfused intracardially with 4% paraformaldehyde in PBS. Their brains were removed, fixed further in the same solution. […] sections, cut on the same day, were de-waxed and hydrated through graded ethanols, cooked in 25 mM citrate buffer pH 6.0 in a pressure cooker at […] for 3 min (decloaking chamber, Biocare Medical), transferred into boiling deinoized water and left to cool down for 20 min. After 5 min treatment in 3% H2O2, slides were incubated with rabbit polyclonal activated caspase-3 antibody diluted 1:100 in CAS-Block (Zymed) for 3 h at room temperature, washed three times with Optimax (Biogenex), incubated for 30 min with anti rabbit Envision_(DAKO) and developed with DAB for 15 min.
The effects of leptin administration (restoration) on neural function in diet-restricted mice was investigated. Mice were assigned at random to 4 groups. The groups were kept under ad libitum or DR to 40% for 10 days and injected daily with either 1 mg/kg leptin or saline for 5 days during the second week. […] Then the effects on the concentrations of NE and dopamine in the hippocampus were evaluated. […] To elucidate the cellular mechanisms involved in leptin effects, proteins associated with apoptosis were determined by immunoblotting. […] Activated caspase-3 could not be detected in the hippocampi of control animals.

In experiment [5] the test system is mice. The experiment is described as follows: Survival of mice under severe energy restriction (40% DR). Format: in vivo. The conditions noted are these: for survival time: Kaplan Meir log rank p<0.05. On the procedure:
Severe energy restriction leads to deterioration of neural function and eventually death. Since leptin can improve cognitive function following DR to 40% and prevents neural apoptosis, it was investigated whether it may also promote mice survival under these same severe conditions. In the first experiment, mice were fed ad libitum or DR to 40% for 12 days and injected daily with 1 mg/kg leptin or saline during the second week (5 days). 95% of the mice survived with leptin treatment compared to 65% in the control group (p<0.05). In a second experiment, mini-osmotic pumps delivering 0.05 mg/kg/h leptin or saline continuously for 16 days were implanted in mice under 40% DR (12 animals in each group). […] The 50% survival in the treated group increased from 9 to 14 days. (FIG. 5).

Experiment [6] deals with Cultured cardiomyocytes. The experiment can be described thus: Cardiomyocyte viability after glucose deprivation (WST). Format: cell-based. Particulars: glucose deprivation for 1, 3, 6 h. How it is done: Cultured cardiomyocytes were exposed to glucose deprivation for 1, 3, 6 h and were treated with Leptin as described above. Cell viability was analyzed by WST.
Experiment [7] relates to Cultured cardiomyocytes. The experiment can be described thus: Apoptosis of glucose-deprived cardiomyocytes by FACS. Format: cell-based. The conditions noted are these: glucose deprived condition for 1, 2, 6 h, 1 ug/ml Leptin. How it is done:
In another experiment cultured cardiomyocytes exposed to glucose deprived condition for 1, 2, 6 h were treated with 1 ug/ml Leptin. Apoptotic cell death was detected by FACS analysis.

In experiment [8] the test system is mice. The experiment is described as follows: Eight-arm maze in TAA model of hepatic encephalopathy. The format is in vivo. The conditions noted are these: TAA treated mice, 1 mg/kg Leptin daily for 5 days. On the procedure:
FIG. 11. […] Mice were treated with TAA, then 1 mg/kg Leptin was administered daily for 5 days. Cognitive function was evaluated in the eight arm maze.
The animals were placed in an eight-arm maze, which is a scaled-down version of that developed for rats (Randt et al, (1971) Science 172, 489-499; Ziv et al (1994) Neuroscience Lett, 170, 136-140). We used water deprivation achieved by limiting water consumption overnight and a reward of 50 μl of water presented at the end of each arm. The mice were tested until they made entries into all eight arms or until they completed 24 entries, whichever came first. […] Maze performance was calculated each day for five consecutive days. Results were presented as area under the curve (AUC) utilizing the formula: (day 2+day 3+day 4+day 5)−4*(day 1).

Experiment [9] relates to mice. The experiment can be described thus: Neurological score in TAA model of hepatic encephalopathy. The format is in vivo. Particulars: TAA treated mice, Leptin daily for 5 days. On the procedure: Mice were treated with TAA, then 1 mk/kg Leptin was administered daily for 5 days and neurological score was evaluated

B1: leptin: Murine leptin provided by A. Gertler; adipokine hormone, full leptin is a 146 amino acid sequence (protein, UniProt P41160 22-167, looked up)
Leptin: VPIQKVQDDTKTLIKTIVTRINDISHTQSVSAKQRVTGLDFIPGLHPILSLSKMDQTLAVYQQVLTSLPSQNVLQIANDLENLRDLLHLLAFSKSCSLPQTSGLQKPESLDGVLEASLYSTEVVALSRLQGSLQDILQQLDVSPEC
Consider B1, for which the eight-arm maze performance entry in [1] (DR to 40%) is “reversed the impaired eight-arm maze performance”; in experiment [1] (ad libitum control group), “not affected”. The “dopamine concentrations in the hippocampus” value in experiment [2] (AL group) was “down-regulated”; in experiment [2] (DR group (40%)) it was “did not induce any significant reduction”. Besides, in experiment [2] (DR to 40%), the “NE concentration in the hippocampus” value is recorded as “reversed the reduction of NE”. Moreover, in experiment [3], the “cognitive performance in the Morris Water Maze” value is listed as “improvement”. In addition, the “activated caspase-3 immunoreactivity” value in [4] is reported as “significantly reduced the immunoreactivity”. Also, the 50% survival in experiment [5] (40% DR, mini-osmotic pump 0.05 mg/kg/h leptin for 16 days, 9 days with saline) turned out to be 14 days. In addition, the survival time result in experiment [5] (40% DR, mini-osmotic pump 0.05 mg/kg/h leptin for 16 days) is “survived significantly longer”; in [5] (40% DR, mini-osmotic pump 0.05 mg/kg/h leptin for 16 days, listed as Leptin), “increases survival”. In experiment [5] (DR to 40% for 12 days, 1 mg/kg leptin daily during second week (5 days), 65% in control group, p<0.05), the mice survived is listed as 95%. For the same molecule, in experiment [6], the “cell viability (WST)” value is on record as “increased significantly the viability; also recorded: induces survival”. The “apoptotic cell death (FACS)” value in experiment [7] was “reduced apoptotic death”; in experiment [7] (listed as Leptin), “decreased apoptosis”. Further, in experiment [8], the “cognitive function in the eight arm maze” value is listed as “reversed impaired cognitive function”. Further, the neurological score result in experiment [9] is on record as “reversed impaired neurological score”.
